Paper PMC4110038, “The CD27L and CTP1L Endolysins Targeting Clostridia Contain a Built-in Trigger and Release Factor” (PLoS Pathogens, 2014)

B3: CD27L endolysin, full length, wild type (enzyme, bacteriophage ΦCD27, UniProt B6SBV8 1-270, looked up)
chain: MKICITVGHSILKSGACTSADGVVNEYQYNKSLAPVLADTFRKEGHKVDVIICPEKQFKTKNEEKSYKIPRVNSGGYDLLIELHLNASNGQGKGSEVLYYSNKGLEYATRICDKLGTVFKNRGAKLDKRLYILNSSKPTAVLIESFFCDNKEDYDKAKKLGHEGIAKLIVEGVLNKNINNEGVKQMYKHTIVYDGEVDKISATVVGWGYNDGKILICDIKDYVPGQTQNLYVVGGGACEKISSITKEKFIMIKGNDRFDTLYKALDFINR
notes: CD27L endolysin of bacteriophage ΦCD27 (N-acetylmuramoyl-L-alanine amidase domain, linker, C-terminal domain); 270 residues by the construct name CD27L180-270; in pET15b with an N-terminal His tag and a thrombin site; Undergoes continuous autocleavage at M186, so samples also hold the catalytic domain and the C-terminal fragment; also called CD27L (wild-type); recombinant CD27L endolysin; source: …

Tests used:
[1] = biological target: CTP1L endolysin, full length, wild type (bacteriophage that targets C. tyrobutyricum (phage not named)); experiment: SEC-RALS/RI/UV (size exclusion chromatography with right-angle light scattering); S75 10/300 GL column, 20 mM HEPES pH 7.4, 500 mM NaCl, room temperature, 75 µL injected at 6.37, 7.15 and 6.17 mg/mL, 0.4 mL/min
[2] = biological target: the molecule itself; experiment: SAXS; CD27L C238R, 10°C, 20 mM Tris, 500 mM NaCl pH 7.4, 1.0-8.5 mg/mL; volume fractions by OLIGOMER on merged data
[3] = biological target: the molecule itself; experiment: SEC-RALS/RI/UV (size exclusion chromatography with right-angle light scattering); S75 10/300 GL column, 20 mM HEPES pH 7.4, 500 mM NaCl, room temperature, 75 µL injected at 6.37, 7.15 and 6.17 mg/mL, 0.4 mL/min
[4] = biological target: the molecule itself; experiment: crystal structure; crystals grown from full-length CD27L that held only the proteolytic C-terminal fragment; six copies in the asymmetric unit; 10-20% PEG 4000, 20 mM Tris pH 8.0; space group P212121
[5] = biological target: B3; experiment: SEC-RALS/RI/UV (size exclusion chromatography with right-angle light scattering); S75 10/300 GL column, 20 mM HEPES pH 7.4, 500 mM NaCl, room temperature, 75 µL injected at 6.37, 7.15 and 6.17 mg/mL, 0.4 mL/min; conditions: both partners purified

Molecule: CTP1L endolysin, full length, wild type (enzyme)
- stoichiometry N [1]: 2

B1: CD27L endolysin C238R mutant, full length (enzyme, bacteriophage ΦCD27, UniProt B6SBV8 1-270, looked up)
chain: MKICITVGHSILKSGACTSADGVVNEYQYNKSLAPVLADTFRKEGHKVDVIICPEKQFKTKNEEKSYKIPRVNSGGYDLLIELHLNASNGQGKGSEVLYYSNKGLEYATRICDKLGTVFKNRGAKLDKRLYILNSSKPTAVLIESFFCDNKEDYDKAKKLGHEGIAKLIVEGVLNKNINNEGVKQMYKHTIVYDGEVDKISATVVGWGYNDGKILICDIKDYVPGQTQNLYVVGGGAREKISSITKEKFIMIKGNDRFDTLYKALDFINR
notes: CD27L endolysin of bacteriophage ΦCD27, made by site-directed mutagenesis of pET15b-cd27l; Side-by-side dimer interface mutant; also called CD27L (C238R); CD27L C239R (as printed in the SEC-RALS methods); source: E. coli BL21(DE3), purified as wild-type CD27L (Ni-NTA, SEC); not shown: His tag, N-terminal, kept
- stoichiometry N [2]: 2

B2: CD27L endolysin M186P mutant, full length (enzyme, bacteriophage ΦCD27, UniProt B6SBV8 1-270, looked up)
chain: MKICITVGHSILKSGACTSADGVVNEYQYNKSLAPVLADTFRKEGHKVDVIICPEKQFKTKNEEKSYKIPRVNSGGYDLLIELHLNASNGQGKGSEVLYYSNKGLEYATRICDKLGTVFKNRGAKLDKRLYILNSSKPTAVLIESFFCDNKEDYDKAKKLGHEGIAKLIVEGVLNKNINNEGVKQPYKHTIVYDGEVDKISATVVGWGYNDGKILICDIKDYVPGQTQNLYVVGGGACEKISSITKEKFIMIKGNDRFDTLYKALDFINR
notes: CD27L endolysin of bacteriophage ΦCD27, made by site-directed mutagenesis of pET15b-cd27l; Cleavage-site mutant; autocleavage abolished; tends to aggregate; also called CD27L M186P; source: E. coli BL21(DE3), purified as wild-type CD27L (Ni-NTA, SEC)
- stoichiometry N [3]: 2

Molecule: B3
- stoichiometry N [3]: 2

B4: Proteolytic fragment of CD27L (C-terminal domain released by autocleavage at M186) (domain or fragment, bacteriophage ΦCD27, UniProt B6SBV8 186-270, looked up)
chain: MYKHTIVYDGEVDKISATVVGWGYNDGKILICDIKDYVPGQTQNLYVVGGGACEKISSITKEKFIMIKGNDRFDTLYKALDFINR
notes: CD27L endolysin of bacteriophage ΦCD27, autoproteolytic C-terminal fragment; N-terminal residue identified as M186 by LC-MS; the protein ends at 270 by the construct name CD27L180-270; About 10 kDa; The N-terminal His tag of the parent stays on the catalytic domain; also called CD27L proteolytic fragment; C-terminal domain of CD27L; source: autoproteolytic product of full-length CD27L made in E. …
- binding result [4]: binds
- binding result [5]: binds
